Experiment [1] concerns PC3 (Human Prostate Cancer Cell Line) tumors. Briefly: PC3 mouse tumor model. To be noted: PC3, 2 mg/kg twice per week. The format is in vivo, NCr nude mice. As to the method:
Briefly, 5×10^6 PC3 cells in 100 μl of growth factor-reduced Matrigel (BD Biosciences) were injected subcutaneously into the flanks of 6-8 week old male NCr nude mice (Taconic, Hudson, N.Y.). After tumor volumes reached an average of about 200 mm^3, mice were randomized into groups for treatment. […] Tumor volumes were measured twice per week over the course of the experiment and tumor weights were measured upon excision of tumors at the conclusion of the experiment. Averages (mean+/−standard deviation) of tumor weight and growth were calculated for each treatment group. Percent decrease of tumor weight and growth were calculated from comparison to Fc protein measurements.

For experiment [2], the system named is Tie-2 phosphorylation (Ang-2-mediated) in HUVECs. Briefly: Inhibition of Ang-2-mediated Tie-2 phosphorylation in FOXO1-adenovirus infected HUVECs. To be noted: antibody 0.5 μg/ml. In kind it is cell-based, human. As to the method: Further, the inventors have shown that infection of HUVECs with an adenovirus encoding FOXO1 results in expression and secretion of Ang-2, followed by activation of Tie-2 phosphorylation (Daly et al. 2006 PNAS 103:15491).
Anti-Ang-2 antibodies were tested for their ability to inhibit Tie-2 phosphorylation. Briefly, 7×10^5 HUVECs (Vec Technologies, Rensselaer, N.Y.) were plated in 6 cm cell culture dishes in 3.5 ml of MCDB131 Complete medium (Vec Technologies, Rensselaer, N.Y.). The following day, the cells were washed with Opti-MEM (Invitrogen Corp., Carlsbad, Calif.) and fed with 2 ml of Opti-MEM. […] Cells were then washed with MCDB131 and fed with 2 ml of MCDB131 containing anti-Ang-2 antibodies at a concentration of 0.5 μg/ml. At twenty hours post infection, cells were lysed and subjected to Tie-2 immunoprecipitation as described by Daly et al., Proc. Natl. Acad. Sci. USA 103:15491-15496 (2006). Immunoglobulin was collected on protein A/G beads (Santa Cruz Biotechnology, Santa Cruz, Calif.) for one hour. Beads were washed with cold lysis buffer and resuspended in SDS sample buffer for analysis by western blot with antibodies specific for phosphotyrosine (Millipore, Billerica, Mass.) or Tie-2. Signals were detected using HRP-conjugated secondary antibodies and ECL reagents (GE Healthcare, Piscataway, N.J.). X-Ray films were scanned and the phospho-Tie-2 and Tie-2 signals were quantified using ImageJ software. The phospho-Tie-2/Tie-2 ratios were used to determine the % inhibition for each anti-Ang-2 antibody (i.e. Percent inhibition=Reduction in phospho-Tie-2/Tie-2 as compared to control).

Experiment [3] has as its system COLO 205 (Human Colorectal Adenocarcinoma Cell Line) tumors. As to the kind of experiment: COLO 205 mouse tumor model. The format is in vivo, mice. To be noted: COLO 205, NCr nude mice, 4 mg/kg intraperitoneal twice per week. As to the method:
Briefly, 2×10^6COLO 205 cells in 100 μl of serum-free medium were injected subcutaneously into the flank of 6-8 week old male NCr nude mice (Taconic, Hudson, N.Y.). After tumor volumes reached an average of about 150 mm^3, mice were randomized into groups for treatment with antibody or Fc protein. Mice in each treatment group were administered an anti-Ang-2 antibody or Fc protein at a concentration of 4 mg/kg via intraperitoneal injection twice per week for approximately two weeks. Tumor volumes were measured twice per week over the course of the experiment and tumor weights were measured upon excision of tumors at the conclusion of the experiment. Averages (mean+/−standard deviation) of tumor weight and growth were calculated for each treatment group. “Avg. Tumor Growth” represents the average growth from the time of treatment initiation (when tumors were approximately 150 mm^3). Percent decrease of tumor weight and growth are calculated from comparison to Fc protein measurements.
A similar experiment was carried out to assess the effect of H1H685P, in particular, on COLO 205 tumor growth. Briefly, 2×10^6 COLO 205 cells in 100 μl of serum-free medium were implanted subcutaneously into the right hind flank of 9-11 week-old male SCID CB17 mice. When the tumors reached ˜125 mm^3, mice were randomized into 5 groups (n=7-8 mice/group) and treated twice per week with Fc protein (15 mg/kg), H1H685P (5 or 25 mg/kg) or Control II (5 or 25 mg/kg) for a period of 19 days. Tumor volumes were measured twice per week over the course of the experiment and tumor weights were measured upon excision of tumors at the end of the experiment. Averages of tumor weight and growth from the beginning of treatment were calculated for each group. Percent decrease of tumor weight and growth are calculated from comparison to the Fc control group.
To determine the effect of combining an anti-Ang-2 antibody with a VEGF inhibitor on the growth of COLO 205 xenografts, 2×10^6 cells were implanted subcutaneously into the right hind flank of 6-8 week-old female SCID mice. When the tumors reached an average volume of ˜350 mm^3, mice were randomized into 4 groups (n=6 mice/group) and treated with: human Fc protein (7.5 mg/kg), H1H685P (5 mg/kg), VEGF Trap (see U.S. Pat. No. 7,087,411) (2.5 mg/kg) or the combination of H1H685P+VEGF Trap. Mice were given a total of 3 doses over 10 days of treatment. Tumor volumes were measured twice per week over the course of the experiment. Averages of tumor growth from the start of treatment (mean+/−standard deviation) were calculated for each treatment group. Percent decrease of tumor growth was calculated from comparison to the Fc control group.
To test the effect of H1H685P in combination with a chemotherapeutic agent on tumor growth, 2.5×10^6 COLO 205 tumor cells were implanted subcutaneously into the right hind flank of 8-9 week-old male SCID mice. When the tumors reached an average volume of ˜150 mm^3 (day 17 after implantation), mice were randomized into 4 groups (n=5 mice/group) and treated as follows: the first group was treated sc with 15 mg/kg hFc and intraperitoneally (ip) with 5-FU vehicle; the second group was treated sc with 15 mg/kg of H1H685P; the third group was treated ip with 75 mg/kg of 5-FU; the fourth group was treated with the combination of 15 mg/kg H1H685P sc plus 75 mg/kg 5-FU ip. Mice received a total of three treatments, administered every 3-4 days. Tumor volumes were measured twice per week over the course of the experiment. Average (mean+/−standard deviation) tumor growth from the beginning of treatment until day 38 was calculated for each group. Percent decrease of tumor growth was calculated from comparison to the control group.

B1: H1M749N: anti-Ang-2 antibody, HCVR/LCVR SEQ ID NOs 314/322 (antibody, V domains shown)
VH: QVQLVESGGGVVQPGRSLRLSCAASGFTFSSYGMHWVRQAPGKGLEWVAVIWYDEFNKYYADSVKGRFTISRDNSKNTLYLQMNSLRAEDTAVYYCARERESGYSYGFDYWGQGTLVTVSS
VL: EIVMTQSPATLSVSPGERATLSCRAGQSVSSNLAWYQQKPGQAPRLLIYGASTRATGIPARFSGSGSGTEFTLTISSLQSEDFAVYYCQQYNNWWTFGQGTKVEIK
As for B1, in experiment [1], the “% Decrease in Tumor Growth” value came out at 54%, the “% Decrease in Tumor Weight” value was found to be 31%, the “Avg Tumor Growth” value was 220 ± 261 mm^3 and the “Avg Tumor Weight” value turned out to be 0.383 ± 0.275 g. In addition, the “Inhibition of Tie-2 phosphorylation” value in experiment [2] is recorded as “++ (50-75%)”. Moreover, in experiment [3], the “% Decrease in Tumor Growth” value worked out at 39%, the “% Decrease in Tumor Weight” value is given as 29% and the “Avg Tumor Growth” value amounted to 449 ± 169 mm^3. Further, the “Avg Tumor Weight” value in experiment [3] (approximately two weeks) stood at 0.603 ± 0.142 g.

These data come from US9926369B2, “Methods for treating hepatocellular cancer by administering an anti-Ang-2 antibody” (Regeneron Pharmaceuticals, Inc., priority 2009, dated 2018).
